According to PMC9273970, “Mambalgin-2 Inhibits Lung Adenocarcinoma Growth and Migration by Selective Interaction With ASIC1/α-ENaC/γ-ENaC Heterotrimer” (Frontiers in Oncology, 2022):

Key:
[1] = target: ASIC1a subunit (acid-sensing ion channel 1a) (human (endogenous in A549))
[2] = target: human heteromeric ASIC1a/α-ENAC/γ-ENAC channel (human, UniProt P78348 1-528; P37088 1-669; P51170 1-649); assay: cell-based or functional assay
Sequence of human heteromeric ASIC1a/α-ENAC/γ-ENAC channel (P78348 whole entry, chain 1 of 3): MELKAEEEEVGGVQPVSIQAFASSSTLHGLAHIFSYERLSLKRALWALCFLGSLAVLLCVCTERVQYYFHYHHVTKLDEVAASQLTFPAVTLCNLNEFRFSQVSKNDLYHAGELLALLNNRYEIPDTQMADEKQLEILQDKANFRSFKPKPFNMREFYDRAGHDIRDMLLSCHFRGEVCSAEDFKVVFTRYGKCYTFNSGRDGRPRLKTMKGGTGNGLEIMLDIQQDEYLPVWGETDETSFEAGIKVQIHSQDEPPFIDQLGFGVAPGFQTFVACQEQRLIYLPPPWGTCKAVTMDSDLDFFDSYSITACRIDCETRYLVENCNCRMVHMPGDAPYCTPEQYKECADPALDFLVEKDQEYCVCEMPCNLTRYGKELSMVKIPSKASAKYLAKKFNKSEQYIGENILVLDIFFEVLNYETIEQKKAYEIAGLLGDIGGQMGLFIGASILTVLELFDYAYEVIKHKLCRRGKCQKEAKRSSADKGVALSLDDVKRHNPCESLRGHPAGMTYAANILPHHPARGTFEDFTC
Sequence of human heteromeric ASIC1a/α-ENAC/γ-ENAC channel (P37088 whole entry, chain 2 of 3): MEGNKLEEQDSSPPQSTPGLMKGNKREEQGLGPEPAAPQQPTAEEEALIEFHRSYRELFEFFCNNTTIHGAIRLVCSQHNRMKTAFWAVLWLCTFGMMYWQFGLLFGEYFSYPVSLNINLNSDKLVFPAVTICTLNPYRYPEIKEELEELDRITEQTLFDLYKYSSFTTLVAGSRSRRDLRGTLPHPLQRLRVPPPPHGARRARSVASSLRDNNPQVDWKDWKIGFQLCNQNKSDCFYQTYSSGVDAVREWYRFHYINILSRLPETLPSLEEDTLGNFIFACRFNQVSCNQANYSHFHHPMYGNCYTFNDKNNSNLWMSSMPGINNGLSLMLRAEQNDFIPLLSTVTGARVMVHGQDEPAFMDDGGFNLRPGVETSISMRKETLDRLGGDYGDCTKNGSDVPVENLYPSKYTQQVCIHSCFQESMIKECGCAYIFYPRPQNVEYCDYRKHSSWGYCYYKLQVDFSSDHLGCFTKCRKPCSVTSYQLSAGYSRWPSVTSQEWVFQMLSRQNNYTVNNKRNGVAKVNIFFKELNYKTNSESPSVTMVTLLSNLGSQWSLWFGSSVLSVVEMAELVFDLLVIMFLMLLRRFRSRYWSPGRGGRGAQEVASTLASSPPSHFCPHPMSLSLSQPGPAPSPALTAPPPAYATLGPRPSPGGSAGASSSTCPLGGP
Sequence of human heteromeric ASIC1a/α-ENAC/γ-ENAC channel (P51170 whole entry, chain 3 of 3): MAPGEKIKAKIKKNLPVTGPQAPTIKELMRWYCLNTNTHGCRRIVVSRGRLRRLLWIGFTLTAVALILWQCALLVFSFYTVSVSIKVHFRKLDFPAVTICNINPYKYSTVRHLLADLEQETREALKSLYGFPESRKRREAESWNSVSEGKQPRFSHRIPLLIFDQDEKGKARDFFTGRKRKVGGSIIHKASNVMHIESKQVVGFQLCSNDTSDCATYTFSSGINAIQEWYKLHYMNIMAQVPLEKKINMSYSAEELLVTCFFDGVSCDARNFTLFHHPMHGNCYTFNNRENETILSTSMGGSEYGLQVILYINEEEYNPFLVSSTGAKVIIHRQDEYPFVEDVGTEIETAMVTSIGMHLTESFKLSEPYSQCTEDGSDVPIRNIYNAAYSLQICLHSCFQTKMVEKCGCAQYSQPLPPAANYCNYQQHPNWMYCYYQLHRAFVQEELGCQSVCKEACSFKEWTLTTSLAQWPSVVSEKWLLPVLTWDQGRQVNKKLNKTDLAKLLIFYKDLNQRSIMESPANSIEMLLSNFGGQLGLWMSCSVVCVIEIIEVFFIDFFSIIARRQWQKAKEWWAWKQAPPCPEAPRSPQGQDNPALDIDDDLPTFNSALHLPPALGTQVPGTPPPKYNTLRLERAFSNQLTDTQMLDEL

Sequence of ASIC1a subunit (acid-sensing ion channel 1a) (human (endogenous in A549)) (P78348 whole entry): as the sequence (P78348 whole entry, chain 1 of 3) above

B1: recombinant mambalgin-2 from Dendroaspis polylepis (natural protein)
chain: LKCFQHGKVVTCHRDMKFCYHNTGMPFRNLKLILQGCSSSCSETENNKCCSTDRCNK
inhibition of currents evoked by a pH drop from 7.4 to 5.0 in X. laevis oocytes expressing homomeric hASIC1a (two-electrode voltage clamp, mambalgin-2 0–10 μM, 15 s pre-incubation), IC50 [1]: 0.59 μM | inhibition of currents evoked by a pH drop from 7.4 to 5.0 in X. laevis oocytes expressing hASIC1a/α-ENAC/γ-ENAC (two-electrode voltage clamp, mambalgin-2 0–10 μM, 15 s pre-incubation), IC50 [2]: 79 nM
